Source: patent US20040018957A1, “Crystal structure of a Ras-P13K complex” (priority 2000, published 2004)

Molecular target: T1, N-Ras.mant-GMPPNP (Homo sapiens, UniProt P01111)
T1 construct: fluorescence anisotropy of full length, unmodified N-Ras.mant-GMPPNP
Test: Fluorescence anisotropy titration of PI3Kγ 144-1102 into N-Ras.mant-GMPPNP
Type: binding
Settings: mutants in the 144-1102 construct, FIG. 2A
Procedure: Mant-nucleotides were synthesised as described previously (Jameson and Eccleston, 1997). N-Ras and H-Ras mutants were loaded with mant-GMPPNP as in (Moore et al., 1993), gel filtered into running buffer (20 mM Tris pH 7.5, 2 mM MgCl2, 1 mM DTT), and frozen at −80° C. The concentration of Ras.mant-GMPPNP was determined by measuring the absorbance of the mant group at […] with ε=5700 M^−1 cm^−1 (Hiratsuka, 1983). For binding assays, the 144-1102 human PI3Kγ was titrated into a 1 μM solution of fill length, unmodified N-Ras.mant-GMPPNP. Data were collected with SLM 8000 S and ISS PC1 spectrofluorimeters, set up in the T-format and L-format, respectively, with prism polarizers. All measurements were taken at 20° C. with a λex of 366 nm. Both emission PMTs were fitted with 399 nm cutoff filters. Five measurements of each data point were obtained and averaged. Data were fitted to the binding equation.

T1 sequence (P01111 whole entry): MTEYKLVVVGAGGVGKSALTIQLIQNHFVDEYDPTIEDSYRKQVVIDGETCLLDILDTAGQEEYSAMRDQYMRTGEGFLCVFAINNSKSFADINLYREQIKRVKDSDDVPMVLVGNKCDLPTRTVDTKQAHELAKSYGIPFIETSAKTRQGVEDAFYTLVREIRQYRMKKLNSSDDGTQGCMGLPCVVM

B1: T232D: PI3Kγ RBD mutant (protein, UniProt P48736 1-1102, looked up, variant T232D)
Phosphatidylinositol …: MELENYKQPVVLREDNCRRRRRMKPRSAAASLSSMELIPIEFVLPTSQRKCKSPETALLHVAGHGNVEQMKAQVWLRALETSVAADFYHRLGPHHFLLLYQKKGQWYEIYDKYQVVQTLDCLRYWKATHRSPGQIHLVQRHPPSEESQAFQRQLTALIGYDVTDVSNVHDDELEFTRRGLVTPRMAEVASRDPKLYAMHPWVTSKPLPEYLWKKIANNCIFIVIHRSTTSQDIKVSPDDTPGAILQSFFTKMAKKKSLMDIPESQSEQDFVLRVCGRDEYLVGETPIKNFQWVRHCLKNGEEIHVVLDTPPDPALDEVRKEEWPLVDDCTGVTGYHEQLTIHGKDHESVFTVSLWDCDRKFRVKIRGIDIPVLPRNTDLTVFVEANIQHGQQVLCQRRTSPKPFTEEVLWNVWLEFSIKIKDLPKGALLNLQIYCGKAPALSSKASAESPSSESKGKVQLLYYVNLLLIDHRFLLRRGEYVLHMWQISGKGEDQGSFNADKLTSATNPDKENSMSISILLDNYCHPIALPKHQPTPDPEGDRVRAEMPNQLRKQLEAIIATDPLNPLTAEDKELLWHFRYESLKHPKAYPKLFSSVKWGQQEIVAKTYQLLARREVWDQSALDVGLTMQLLDCNFSDENVRAIAVQKLESLEDDDVLHYLLQLVQAVKFEPYHDSALARFLLKRGLRNKRIGHFLFWFLRSEIAQSRHYQQRFAVILEAYLRGCGTAMLHDFTQQVQVIEMLQKVTLDIKSLSAEKYDVSSQVISQLKQKLENLQNSQLPESFRVPYDPGLKAGALAIEKCKVMASKKKPLWLEFKCADPTALSNETIGIIFKHGDDLRQDMLILQILRIMESIWETESLDLCLLPYGCISTGDKIGMIEIVKDATTIAKIQQSTVGNTGAFKDEVLNHWLKEKSPTEEKFQAAVERFVYSCAGYCVATFVLGIGDRHNDNIMITETGNLFHIDFGHILGNYKSFLGINKERVPFVLTPDFLFVMGTSGKKTSPHFQKFQDICVKAYLALRHHTNLLIILFSMMLMTGMPQLTSKEDIEYIRDALTVGKNEEDAKKYFLDQIEVCRDKGWTVQFNWFLHLVLGIKQGEKHSA
  effect of PI3Kγ RBD mutation on binding to Ras: eliminate binding

B2: K251A: PI3Kγ RBD mutant (protein, UniProt P48736 1-1102, looked up, variant K251A)
Phosphatidylinositol …: MELENYKQPVVLREDNCRRRRRMKPRSAAASLSSMELIPIEFVLPTSQRKCKSPETALLHVAGHGNVEQMKAQVWLRALETSVAADFYHRLGPHHFLLLYQKKGQWYEIYDKYQVVQTLDCLRYWKATHRSPGQIHLVQRHPPSEESQAFQRQLTALIGYDVTDVSNVHDDELEFTRRGLVTPRMAEVASRDPKLYAMHPWVTSKPLPEYLWKKIANNCIFIVIHRSTTSQTIKVSPDDTPGAILQSFFTAMAKKKSLMDIPESQSEQDFVLRVCGRDEYLVGETPIKNFQWVRHCLKNGEEIHVVLDTPPDPALDEVRKEEWPLVDDCTGVTGYHEQLTIHGKDHESVFTVSLWDCDRKFRVKIRGIDIPVLPRNTDLTVFVEANIQHGQQVLCQRRTSPKPFTEEVLWNVWLEFSIKIKDLPKGALLNLQIYCGKAPALSSKASAESPSSESKGKVQLLYYVNLLLIDHRFLLRRGEYVLHMWQISGKGEDQGSFNADKLTSATNPDKENSMSISILLDNYCHPIALPKHQPTPDPEGDRVRAEMPNQLRKQLEAIIATDPLNPLTAEDKELLWHFRYESLKHPKAYPKLFSSVKWGQQEIVAKTYQLLARREVWDQSALDVGLTMQLLDCNFSDENVRAIAVQKLESLEDDDVLHYLLQLVQAVKFEPYHDSALARFLLKRGLRNKRIGHFLFWFLRSEIAQSRHYQQRFAVILEAYLRGCGTAMLHDFTQQVQVIEMLQKVTLDIKSLSAEKYDVSSQVISQLKQKLENLQNSQLPESFRVPYDPGLKAGALAIEKCKVMASKKKPLWLEFKCADPTALSNETIGIIFKHGDDLRQDMLILQILRIMESIWETESLDLCLLPYGCISTGDKIGMIEIVKDATTIAKIQQSTVGNTGAFKDEVLNHWLKEKSPTEEKFQAAVERFVYSCAGYCVATFVLGIGDRHNDNIMITETGNLFHIDFGHILGNYKSFLGINKERVPFVLTPDFLFVMGTSGKKTSPHFQKFQDICVKAYLALRHHTNLLIILFSMMLMTGMPQLTSKEDIEYIRDALTVGKNEEDAKKYFLDQIEVCRDKGWTVQFNWFLHLVLGIKQGEKHSA
  effect of PI3Kγ RBD mutation on binding to Ras: eliminate binding

B3: K234A: PI3Kγ mutant of a switch II contact residue (protein, UniProt P48736 1-1102, looked up, variant K234A)
Phosphatidylinositol …: MELENYKQPVVLREDNCRRRRRMKPRSAAASLSSMELIPIEFVLPTSQRKCKSPETALLHVAGHGNVEQMKAQVWLRALETSVAADFYHRLGPHHFLLLYQKKGQWYEIYDKYQVVQTLDCLRYWKATHRSPGQIHLVQRHPPSEESQAFQRQLTALIGYDVTDVSNVHDDELEFTRRGLVTPRMAEVASRDPKLYAMHPWVTSKPLPEYLWKKIANNCIFIVIHRSTTSQTIAVSPDDTPGAILQSFFTKMAKKKSLMDIPESQSEQDFVLRVCGRDEYLVGETPIKNFQWVRHCLKNGEEIHVVLDTPPDPALDEVRKEEWPLVDDCTGVTGYHEQLTIHGKDHESVFTVSLWDCDRKFRVKIRGIDIPVLPRNTDLTVFVEANIQHGQQVLCQRRTSPKPFTEEVLWNVWLEFSIKIKDLPKGALLNLQIYCGKAPALSSKASAESPSSESKGKVQLLYYVNLLLIDHRFLLRRGEYVLHMWQISGKGEDQGSFNADKLTSATNPDKENSMSISILLDNYCHPIALPKHQPTPDPEGDRVRAEMPNQLRKQLEAIIATDPLNPLTAEDKELLWHFRYESLKHPKAYPKLFSSVKWGQQEIVAKTYQLLARREVWDQSALDVGLTMQLLDCNFSDENVRAIAVQKLESLEDDDVLHYLLQLVQAVKFEPYHDSALARFLLKRGLRNKRIGHFLFWFLRSEIAQSRHYQQRFAVILEAYLRGCGTAMLHDFTQQVQVIEMLQKVTLDIKSLSAEKYDVSSQVISQLKQKLENLQNSQLPESFRVPYDPGLKAGALAIEKCKVMASKKKPLWLEFKCADPTALSNETIGIIFKHGDDLRQDMLILQILRIMESIWETESLDLCLLPYGCISTGDKIGMIEIVKDATTIAKIQQSTVGNTGAFKDEVLNHWLKEKSPTEEKFQAAVERFVYSCAGYCVATFVLGIGDRHNDNIMITETGNLFHIDFGHILGNYKSFLGINKERVPFVLTPDFLFVMGTSGKKTSPHFQKFQDICVKAYLALRHHTNLLIILFSMMLMTGMPQLTSKEDIEYIRDALTVGKNEEDAKKYFLDQIEVCRDKGWTVQFNWFLHLVLGIKQGEKHSA
  effect of PI3Kγ RBD mutation on binding to Ras: probably increases the Kd

B4: K255A: PI3Kγ RBD mutant (protein, UniProt P48736 1-1102, looked up, variant K255A)
Phosphatidylinositol …: MELENYKQPVVLREDNCRRRRRMKPRSAAASLSSMELIPIEFVLPTSQRKCKSPETALLHVAGHGNVEQMKAQVWLRALETSVAADFYHRLGPHHFLLLYQKKGQWYEIYDKYQVVQTLDCLRYWKATHRSPGQIHLVQRHPPSEESQAFQRQLTALIGYDVTDVSNVHDDELEFTRRGLVTPRMAEVASRDPKLYAMHPWVTSKPLPEYLWKKIANNCIFIVIHRSTTSQTIKVSPDDTPGAILQSFFTKMAKAKSLMDIPESQSEQDFVLRVCGRDEYLVGETPIKNFQWVRHCLKNGEEIHVVLDTPPDPALDEVRKEEWPLVDDCTGVTGYHEQLTIHGKDHESVFTVSLWDCDRKFRVKIRGIDIPVLPRNTDLTVFVEANIQHGQQVLCQRRTSPKPFTEEVLWNVWLEFSIKIKDLPKGALLNLQIYCGKAPALSSKASAESPSSESKGKVQLLYYVNLLLIDHRFLLRRGEYVLHMWQISGKGEDQGSFNADKLTSATNPDKENSMSISILLDNYCHPIALPKHQPTPDPEGDRVRAEMPNQLRKQLEAIIATDPLNPLTAEDKELLWHFRYESLKHPKAYPKLFSSVKWGQQEIVAKTYQLLARREVWDQSALDVGLTMQLLDCNFSDENVRAIAVQKLESLEDDDVLHYLLQLVQAVKFEPYHDSALARFLLKRGLRNKRIGHFLFWFLRSEIAQSRHYQQRFAVILEAYLRGCGTAMLHDFTQQVQVIEMLQKVTLDIKSLSAEKYDVSSQVISQLKQKLENLQNSQLPESFRVPYDPGLKAGALAIEKCKVMASKKKPLWLEFKCADPTALSNETIGIIFKHGDDLRQDMLILQILRIMESIWETESLDLCLLPYGCISTGDKIGMIEIVKDATTIAKIQQSTVGNTGAFKDEVLNHWLKEKSPTEEKFQAAVERFVYSCAGYCVATFVLGIGDRHNDNIMITETGNLFHIDFGHILGNYKSFLGINKERVPFVLTPDFLFVMGTSGKKTSPHFQKFQDICVKAYLALRHHTNLLIILFSMMLMTGMPQLTSKEDIEYIRDALTVGKNEEDAKKYFLDQIEVCRDKGWTVQFNWFLHLVLGIKQGEKHSA
  effect of PI3Kγ RBD mutation on binding to Ras: eliminate binding
